The supplement of paper PMC9112550, “Optimization of the antimicrobial peptide Bac7 by deep mutational scanning” (BMC Biology, 2022)

Tested on: Escherichia coli TOP10
Assay: shrunken log2 fold change of peptide-encoding DNA abundance (4.5 h post-induction vs induction); higher = less antimicrobial activity (less host growth inhibition)
Conditions: time post-induction: 4.5 h; library: site-saturation at positions 5, 18, 19, 20
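Note: peptides expressed intracellularly from a pBAD plasmid library in pooled LB shake-flask culture, induced with 0.3% L-arabinose, DNA abundance read by NGS, three biological replicates, DESeq2 with apeglm shrinkage.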

Sequence	shrunken log2 fold change
RRIRPRPPRLPRPRPRPDAHPRP	0.209
RRIRVRPPRLPRPRPRPCSNPRP	-0.411
RRIRPRPPRLPRPRPRPRPGPRP	0.555
RRIRGRPPRLPRPRPRPQAEPRP	1.08
RRIRSRPPRLPRPRPRPQVDPRP	-0.296
RRIRSRPPRLPRPRPRPHPSPRP	0.0251
RRIRHRPPRLPRPRPRPTDGPRP	-0.0791
RRIRNRPPRLPRPRPRPKHNPRP	-0.434
RRIRVRPPRLPRPRPRPFRNPRP	-0.0529
RRIRPRPPRLPRPRPRPDMRPRP	0.861
RRIRTRPPRLPRPRPRPYMCPRP	-0.827
RRIRTRPPRLPRPRPRPQDGPRP	-0.0217
RRIRPRPPRLPRPRPRPHAGPRP	1.77
RRIRKRPPRLPRPRPRPQQMPRP	0.313
RRIRQRPPRLPRPRPRPWIEPRP	-0.0606
RRIRCRPPRLPRPRPRPPKYPRP	-0.291
RRIRWRPPRLPRPRPRPIVEPRP	0.127
RRIRLRPPRLPRPRPRPTLWPRP	0.284
RRIRMRPPRLPRPRPRPPLVPRP	0.36
RRIRTRPPRLPRPRPRPCSPPRP	-0.0356
RRIRARPPRLPRPRPRPTEMPRP	-0.00782
RRIRYRPPRLPRPRPRPGEEPRP	0.0322
RRIRRRPPRLPRPRPRPPGKPRP	0.978
RRIRSRPPRLPRPRPRPDAKPRP	0.0687
RRIRPRPPRLPRPRPRPHSWPRP	0.069

Sequence	shrunken log2 fold change
RRIRFRPPRLPRPRPRPPDGPRP	0.209
RRIRWRPPRLPRPRPRPVFTPRP	0.0746
RRIRFRPPRLPRPRPRPIYTPRP	-0.424
RRIRERPPRLPRPRPRPSFTPRP	-1.03
RRIRGRPPRLPRPRPRPFHDPRP	-0.0838
RRIRDRPPRLPRPRPRPDNYPRP	-0.117
RRIRFRPPRLPRPRPRPPGKPRP	0.2
RRIRKRPPRLPRPRPRPTYFPRP	-0.817
RRIRDRPPRLPRPRPRPWIVPRP	0.0145
RRIRGRPPRLPRPRPRPGIRPRP	0.208
RRIRTRPPRLPRPRPRPWPPPRP	0.154
RRIRRRPPRLPRPRPRPWKCPRP	-0.0487
RRIRFRPPRLPRPRPRPHADPRP	0.0798
RRIRGRPPRLPRPRPRPFLYPRP	-0.11
RRIRIRPPRLPRPRPRPGSTPRP	-0.549
RRIRVRPPRLPRPRPRPQNAPRP	0.00238
RRIRSRPPRLPRPRPRPKMTPRP	0.0901
RRIRLRPPRLPRPRPRPYDYPRP	-0.0244
RRIRCRPPRLPRPRPRPFKSPRP	0.122
RRIRHRPPRLPRPRPRPKHKPRP	-0.297
RRIRVRPPRLPRPRPRPMEQPRP	-0.033
RRIRYRPPRLPRPRPRPKIGPRP	-0.177
RRIRDRPPRLPRPRPRPWKNPRP	-0.0182
RRIRERPPRLPRPRPRPLLHPRP	-0.288
RRIRNRPPRLPRPRPRPFFVPRP	0.126

Sequence	shrunken log2 fold change
RRIRMRPPRLPRPRPRPAHPPRP	0.296
RRIRPRPPRLPRPRPRPYFHPRP	-0.522
RRIRTRPPRLPRPRPRPGYPPRP	-0.197
RRIRERPPRLPRPRPRPFMHPRP	-0.121
RRIRARPPRLPRPRPRPGGRPRP	0.525
RRIRCRPPRLPRPRPRPMEQPRP	-0.00403
RRIRGRPPRLPRPRPRPCSHPRP	-0.112
RRIRWRPPRLPRPRPRPAQHPRP	0.363
RRIRLRPPRLPRPRPRPKSNPRP	-0.172
RRIRWRPPRLPRPRPRPTNAPRP	0.0747
RRIRPRPPRLPRPRPRPCHAPRP	-0.242
RRIRMRPPRLPRPRPRPINNPRP	-0.347
RRIRCRPPRLPRPRPRPEMSPRP	-0.129
RRIRERPPRLPRPRPRPYFGPRP	-0.673
RRIRFRPPRLPRPRPRPKTHPRP	-0.0208
RRIRDRPPRLPRPRPRPYKAPRP	-0.0157
RRIRYRPPRLPRPRPRPECNPRP	-0.0877
RRIRNRPPRLPRPRPRPVHVPRP	0.0303
RRIRARPPRLPRPRPRPNLVPRP	-0.0779
RRIRMRPPRLPRPRPRPNHFPRP	-0.436
RRIRLRPPRLPRPRPRPSNHPRP	-1.15
RRIRCRPPRLPRPRPRPDFKPRP	-0.219
RRIRLRPPRLPRPRPRPYTKPRP	0.119
RRIRTRPPRLPRPRPRPKNFPRP	-0.0884
RRIRYRPPRLPRPRPRPWGYPRP	-0.0919
